According to paper PMC5045424, “The La protein counteracts cisplatin-induced cell death by stimulating protein synthesis of anti-apoptotic factor Bcl2”:

Key:
[1] = biological target: T1, La (LARP3, La/SSB), recombinant His-tagged wildtype (human, UniProt P05455 1-408); test: EMSA; 25 nM RNA, 0-600 nM La; EMSA and FP: 25 nM FAM-RNA, 0-600 nM La; competition FP: 200 nM La; buffer, salt, pH and temperature not given (cited to ref 21); details: protein: recombinant; tags: His; label: 5' 6-FAM; stem-loop embedding the AUG (mfold)
T1 sequence: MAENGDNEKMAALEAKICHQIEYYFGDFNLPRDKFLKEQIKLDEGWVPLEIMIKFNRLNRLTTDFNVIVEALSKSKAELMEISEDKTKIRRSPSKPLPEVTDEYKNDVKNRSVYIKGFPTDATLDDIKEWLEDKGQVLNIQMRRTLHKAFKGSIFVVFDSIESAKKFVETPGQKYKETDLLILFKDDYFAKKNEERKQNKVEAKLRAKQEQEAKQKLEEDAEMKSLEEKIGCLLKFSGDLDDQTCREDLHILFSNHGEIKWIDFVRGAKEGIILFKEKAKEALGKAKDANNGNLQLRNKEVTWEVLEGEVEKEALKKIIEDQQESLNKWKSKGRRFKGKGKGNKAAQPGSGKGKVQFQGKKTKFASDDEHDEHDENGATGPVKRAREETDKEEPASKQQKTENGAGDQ

[2] = biological target: T1, La (LARP3, La/SSB), recombinant …; test: fluorescence polarization; 25 nM RNA; EMSA and FP: 25 nM FAM-RNA, 0-600 nM La; competition FP: 200 nM La; buffer, salt, pH and temperature not given (cited to ref 21); details: protein: recombinant; tags: His; label: 5' 6-FAM; stem-loop embedding the AUG (mfold)

**Q.** How did the Kd [1] turn out when CCCGUUGCUUUUCCUCUGGGAAGGAUGGCGCACGCUGGG (structured_RNA) [Bcl2_WT RNA oligonucleotide, FAM-labeled (-24 to +15)] was run?
**A.** The Kd was 50.5 ± 5.9 nM.

**Q.** And the Kd [2]?
**A.** Its Kd is 60.1 ± 4.5 nM.
